Test results as given in publication PMC9672452.

Assay: cell-surface N1, PE anti-Notch1 flow cytometry, CHO
Conditions: control: wild type

| Substance | expression_or_secretion (glycan gained) | expression_or_secretion (glycan lost) |
| --- | --- | --- |
| NOTCH1 (N1): N386T | no change | – |
| NOTCH1 (N1): T311P | – | decreases |
| NOTCH1 (N1): T349P | – | decreases |
